Measured values: the nanobody polyreactivity screen of Harvey et al. (2022)

Assay: yeast display, Sf9 membrane polyspecificity reagent, FACS + sequencing; frameworks hold sequencing errors
Summary of the method: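 Using colony PCR, genes from sorted yeast display clones were amplified, then sequenced on MiSeq at 2 × 250 and filtered by CDR length. The clones had been stained with 10% biotinylated, detergent-solubilized Sf9 membrane reagent for 1 hour at 4 °C and sorted by FACS into low and high (top ~1%) gates on anti-HA and streptavidin fluorescence. Polyreactivity labels come from the gate of origin.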
For “QVQLVESGGGLVQAGGSLRLSCAASGFIIPGYAMGWYRQAPGKERELVAAISRSGTSTYYADSVKGRFTISRDNAKNTVYLQMNSLKPEDTAVYYCAAKPASLSVRGYDYWGQGTQVTVSS”, the “polyreactivity (PSR sort gate)” value was “high polyreactivity”.
In the case of “QVQLVESGGGLVQAGGSLRLSCAASGFIIQGNAMGWYRQAPGKERELVAAISSSVSTYYADSVKGRFTISRDNAKNTVYLQMNSLKPEDTAVYYCNAGFPLSLWLGDYWGQGTQVTVSS”, the “polyreactivity (PSR sort gate)” value is reported as “low polyreactivity”.
For “QVQLVESGGGLVQAGGSLRLSCAASGFIISDYAMGWYRQAPGKERELVAVITWRSGSTYYADSVKGRFTISRDNAKNTVYFQMHSLKPVDTAVYYCAARYYRNYSQGRRLGYNYWGQGTQVTVSS”, the “polyreactivity (PSR sort gate)” value was “high polyreactivity”.
With “QVQLVESGGGLVQAGGSLRLSCAASGFIISNNAMGWYRQAPGKERELVAVINGGGSTYYADSVKGRFTISRDTAKNTVYLQMNSLKPEDTAVYYCNADRFADYDYWGQGTQVTVSS” the “polyreactivity (PSR sort gate)” value was “low polyreactivity”.
In the case of “QVQLVESGGGLVQAGGSLRLSCAASGFIITGNPMGWYRQAPGKERELVAAITSGGNTYYADSVKGRFTISRDNANNTVYLQMNSLKPEDTAVYYCAKYVPHWRILMEYWGQGTQVTVSS”, the “polyreactivity (PSR sort gate)” value is reported as “low polyreactivity”.
For “QVQLVESGGGLVQAGGSLRLSCAASGFIIVNNAMGWYRQAPGKERELVATISRGGSTNYADSVKGRFTISRDNAKNTVYLQMNSLKPEDTAVYYCNARRSVKVYGVDYWGQGTQVTVSS”, the “polyreactivity (PSR sort gate)” value was “high polyreactivity”.
In the case of “QVQLVESGGGLVQAGGSLRLSCAASGFIIVYYAMGWYRQAPGKERELVAAITSSGGSTYYADSVKGRFTISRDNAKNTVYLQMNSLKPEDTAVYYCNRVWYATDFVNTMGYWGQGTQGTVSS”, the “polyreactivity (PSR sort gate)” value is reported as “low polyreactivity”.
For “QVQLVESGGGLVQAGGSLRLSCAASGFIIYFYAMGWYRQAPGKERELVAAINYPGDSTYYADSVKGRFTISRDNAKNTVYLQMNSLKPEDTAVYYCNKVLYNKWPYVTLSAFPTVGYWGQGTQVTVSS”, the “polyreactivity (PSR sort gate)” value was “high polyreactivity”.
With “QVQLVESGGGLVQAGGSLRLSCAASGFILDTYAMGWYRQAPGKERELVAAISASGSSTYYADSVKGRFTISRDNAKNTVYLQMNSLKPEDTAVYYCAAKDTGYGYGFPRLDYWGQGTQVTVSS” the “polyreactivity (PSR sort gate)” value was “low polyreactivity”.
With “QVQLVESGGGLVQAGGSLRLSCAASGFILDYNAMGWYRQAPGKERELVATITGRGDRTYYADSVKGRVTISRDNAKNTVYLQMNSLKPEDTAGYYCAAGFDGSRHPGFDSWGQGTQVTVSS” the “polyreactivity (PSR sort gate)” value was “low polyreactivity”.
In the case of “QVQLVESGGGLVQAGGSLRLSCAASGFILDYYAMGWYRQAPGKERELVAANSYSGGSTYYADSVKGRFTISRDNAKNTVYLQMTSLKAEDTGVYYGNAGVLVLLYAYLPSELEYWGQGTQVTVSS”, the “polyreactivity (PSR sort gate)” value is reported as “low polyreactivity”.
For “QVQLVESGGGLVQAGGSLRLSCAASGFILEPNAMGWYRQAPGKERELVATISFSGGGTYYADSVKGRFTISRDNAKNNVYLQMNSLKPEDTAVYYCAAQGRDSDYVDFDYWGQGTQVTVSS”, the “polyreactivity (PSR sort gate)” value was “high polyreactivity”.
For “QVQLVESGGGLVQAGGSLRLSCAASGFILGTYAMGWYRQAPGKERELVAAISRSGGSTYYADSVKGRFTISRDNAKNSVYLQMNSLKPEDTAVYYCNTVRVHGFPIDRIYDYWGQGTQVTVSS”, the “polyreactivity (PSR sort gate)” value was “high polyreactivity”.
For “QVQLVESGGGLVQAGGSLRLSCAASGFILGVYAMGWYRQAPGKERELVAAISKSGDSTYYADSVKGRFTISRDNAKNTVYLLMNSLKPEDTAVYYCNADWSWYNYYDFDYWGQGTQVTVSS”, the “polyreactivity (PSR sort gate)” value was “low polyreactivity”.
For “QVQLVESGGGLVQAGGSLRLSCAASGFILIRNGMGCYRQAPGKERELVAAISRSGRTYYADSVKGRFTISRDNAKNTVYLQMNSLKPEDTAVYYCAKRDYLYGRYDYSGQGTQVTVSS”, the “polyreactivity (PSR sort gate)” value was “high polyreactivity”.
For “QVQLVESGGGLVQAGGSLRLSCAASGFILKYYAMGWYRQAPGKERELVAAISWSGGSTYYADSVKGRFTISRDNAKNTVYLQMNSLKPEVTAVYYCNAYYVYNSLGYWGQGTQVTVSS”, the “polyreactivity (PSR sort gate)” value was “high polyreactivity”.
For “QVQLVESGGGLVQAGGSLRLSCAASGFILLDNAMGRYRQAPVKEREFVASINISGDRTFYADSVKGRFTISRDNAKNTVYLQMNSLKPEDTAVYYCAKEPGLGRRSTTAYDYWGQGTQVTVSS”, the “polyreactivity (PSR sort gate)” value was “low polyreactivity”.
For “QVQLVESGGGLVQAGGSLRLSCAASGFILNKNVMGWYRQAPGKERELVAAITASGSSTYYADSVKGRFTISRDNAKNTVYLQMNSLKPEDTAVYYCAARGYWSSYAPRFNYWVQGTQVTVSS”, the “polyreactivity (PSR sort gate)” value was “high polyreactivity”.
With “QVQLVESGGGLVQAGGSLRLSCAASGFILPNYTMGWYRQAPGKERELVAAISRGGSTNYADSVKGRFTISRDNAKNTVYLQMNSLKPEDTAVYYCAVDAWTGESYWEHYYWGQGTQVTVSS” the “polyreactivity (PSR sort gate)” value was “low polyreactivity”.
For “QVQLVESGGGLVQAGGSLRLSCAASGFILQTYAMGWYRQAPGKERELVAAITSGARTYYADSVKGRFTISRDNAKNTVYLQMNSLKPEDTAVYYCAASIWLYRYYYWGQGTQVTVSS”, the “polyreactivity (PSR sort gate)” value was “high polyreactivity”.
For “QVQLVESGGGLVQAGGSLRLSCAASGFILRAYAMGWYRQAPGKEREFVAAITRRGGSTYYADSVKGRFTISRDNAKNTVYLQMNSLKPEDTAVYYCAAKFFSSPHNLGYWGQGTQVTVSS”, the “polyreactivity (PSR sort gate)” value was “high polyreactivity”.
For “QVQLVESGGGLVQAGGSLRLSCAASGFILRAYAMGWYRQAPGKERELVAAITSATSTNYADSVKGRFTISRDNAKNTVYLQMNSLKPEDTAVYYCAADGGGGEFSYDSWGQGTQVTVSS”, the “polyreactivity (PSR sort gate)” value was “low polyreactivity”.
With “QVQLVESGGGLVQAGGSLRLSCAASGFILRIYTMGWYRQAPGKERELVAAINWSGGRTYYADSVKGRFTISRDNAKNTVYLHMNSLKPEDTAVYYCAAVYGVSVSKYYYWGQGTQVTVSS” the “polyreactivity (PSR sort gate)” value was “high polyreactivity”.
For “QVQLVESGGGLVQAGGSLRLSCAASGFILRRYTMGWYRQAPGKEREFVAGISWRGGSTYYADSVKGRFTISRDNAKNTVYLQMNSLKPEDTAVYYCAAETYQLTWVLYYYWGQGTQVTVSS”, the “polyreactivity (PSR sort gate)” value was “high polyreactivity”.
With “QVQLVESGGGLVQAGGSLRLSCAASGFILRTNAMGWYRQAPGKERELVAAISVSGGRTYYADSVKGRFTISRDNAKNTVYLQMNSLKPEDTAVYYCAARDSTKLLSGYTHYYWGQGTQVTVSS” the “polyreactivity (PSR sort gate)” value was “high polyreactivity”.
With “QVQLVESGGGLVQAGGSLRLSCAASGFILRYYAMGWYRQAPGKERELVAAITRGGSTYDADSVKGRFTISRDNAKNTVYLQMNSLKPEDTAVYYFDRRVGYKFSYDYWGQGTQVTVSS” the “polyreactivity (PSR sort gate)” value was “high polyreactivity”.
In the case of “QVQLVESGGGLVQAGGSLRLSCAASGFILYGNAMGLYRQAPGKERELVAAISRRGGSTYYADSVKGRFTISRDNAKNTVYLQMNSLKPEDTAVYYCAKDGPGGGTRIYEYWGQGTLVTVSS”, the “polyreactivity (PSR sort gate)” value is reported as “high polyreactivity”.
In the case of “QVQLVESGGGLVQAGGSLRLSCAASGFILYRYAMGWYRQAPGKERELVAAISSGGRTYYADSVKGRFTISRDNAKNTVYLQMNSLKPEDTAVYYCNAAYKNSPYDYWGQGTQVTVSS”, the “polyreactivity (PSR sort gate)” value is reported as “high polyreactivity”.
With “QVQLVESGGGLVQAGGSLRLSCAASGFILYSYAMGWYRQAPGKERELVAAINSTGSTYYADSVKGRFTISRDNAKNTVYLQMNSLKPEDTAVYYCATDPWYQTDHSYDTPYYYWGQGTQVTVSS” the “polyreactivity (PSR sort gate)” value was “low polyreactivity”.
In the case of “QVQLVESGGGLVQAGGSLRLSCAASGFILYTYAMGWYRQAPGKERELVADIDSGDGTYYADSVKGRFTISRDNAKNTVYLQMNSLKPEDTAVYYCAAQVVTWSYVYDVPGYYRYDYWGQGTQVTVSS”, the “polyreactivity (PSR sort gate)” value is reported as “low polyreactivity”.
In the case of “QVQLVESGGGLVQAGGSLRLSCAASGFILYYYAMGWYRQAPGKERELVAAISWSGDSTYYADSVKGRFTISRDNAKNTVYLQMNSLKPEDTAVYYCAATWQLTHRYYWGQGTQVTVSS”, the “polyreactivity (PSR sort gate)” value is reported as “low polyreactivity”.
In the case of “QVQLVESGGGLVQAGGSLRLSCAASGFIRTYAMGWYRQAPGKERELVAAITSSGGRTYYADSVKGRFTISRDNAKNTVYLQMNSLKPEDTAVYYCAAGLGRYLRYNYWGQGTQVTVSS”, the “polyreactivity (PSR sort gate)” value is reported as “high polyreactivity”.
With “QVQLVESGGGLVQAGGSLRLSCAASGFISAYYAMGWYRQAPAKERELVAGINSNGGSTYYADSVKGRFTISRDNAKNTVYLQMNSLKPEDTAVYYCNKRYRHLYYKSVGSYDYWGQGTQVTVSS” the “polyreactivity (PSR sort gate)” value was “high polyreactivity”.
With “QVQLVESGGGLVQAGGSLRLSCAASGFISDGNYMGWYRQAPGKERELVAAISSGATTHYADSVKGRFTISRDNAKNTVYLQMNSLKPEDTAVYYCNRGDDWRYDYWGQGTQVTVSS” the “polyreactivity (PSR sort gate)” value was “low polyreactivity”.
With “QVQLVESGGGLVQAGGSLRLSCAASGFISHKYAMGWYRHAHGKERELVAAISWSGTSTHYADSVKGRFTISRDNAKKTVYIQMKSLKPEDTAVYYCAARRYPVLKYDYWGEGTQVTVSS” the “polyreactivity (PSR sort gate)” value was “high polyreactivity”.
With “QVQLVESGGGLVQAGGSLRLSCAASGFISKYYAMGRYRQAPGKERELVASISRDGSTSYADSVKGRFTISRDNAKNTVYLQMNSLKPEDTAVYYCAAPSYRTRYYYWGQGTQVTVSS” the “polyreactivity (PSR sort gate)” value was “high polyreactivity”.
In the case of “QVQLVESGGGLVQAGGSLRLSCAASGFISKYYAMGWSRQAPGKERELVASISRDGSTSYADSVKGRFTISRDNAKNTVYLQMNSLKPEDTAVYYCAAPRRWGDKYSFGYWGQGTQVTVSS”, the “polyreactivity (PSR sort gate)” value is reported as “high polyreactivity”.
With “QVQLVESGGGLVQAGGSLRLSCAASGFISKYYAMGWYRQAPGKERELVASISRDGSTSYADSVKGRFTISRDNAKNTVYLQMNSLKPEDTAVYYCAAPSYRTRYYYWGQGTQVTVSS” the “polyreactivity (PSR sort gate)” value was “high polyreactivity”.
With “QVQLVESGGGLVQAGGSLRLSCAASGFISPPYAMGWYRQAPGKVMELVAAISSNGGRTSYADSVKGRFTISRDNAKNTVYLQMNSLKPEDTAVYYCNAVYSLYYTRYNYWGQGTQETVSS” the “polyreactivity (PSR sort gate)” value was “high polyreactivity”.
In the case of “QVQLVESGGGLVQAGGSLRLSCAASGFISPQNTMGWYRQAPGKERELVAAITSGGSTYYADSVKGRFTISRDNAKNTVYLQMNSLKPEDTAVYYCAARPYGTWTYGYWGQGTQVTVSS”, the “polyreactivity (PSR sort gate)” value is reported as “low polyreactivity”.
With “QVQLVESGGGLVQAGGSLRLSCAASGFISRFNSMGWYRKAPGKERELVAAISWYGGITYYADSVKGRFTISRDNAKNTVYLQMNSLKPEDTAVYYCNAGDHIRKRYGISATWGYGYGYWGQGTQVTVSS” the “polyreactivity (PSR sort gate)” value was “high polyreactivity”.
With “QVQLVESGGGLVQAGGSLRLSCAASGFISRNAMGWYRQAPGKQRELVAGITRGGSTNYADSVKGRFTISRDNAKNTVYLHMNSLKPEYTAVYYFATRRRLKGLAYDYWGQGNQVTVSS” the “polyreactivity (PSR sort gate)” value was “high polyreactivity”.
In the case of “QVQLVESGGGLVQAGGSLRLSCAASGFISSENAMGWYRQAPGKERELVAAISSGGSTNYADSVKGRFTISRDNAKNTVYLQMNSLKPEDTAVYYCAATLPGWYNEDDSWGQGTQVNVSS”, the “polyreactivity (PSR sort gate)” value is reported as “low polyreactivity”.
